Series [1] deals with MPJSBWMV:GFP (movement protein, GFP fusion, in leaf extract) (Japanese soil-borne wheat mosaic virus). Nature of the series: MST. The settings on record: MST in leaf extract: extraction in 2x MST buffer (100 mM Tris-HCl pH 7.5, 300 mM NaCl, 10 mM MgCl2, 0.1% Tween-20, 0.1 mg/mL BSA, 10 mM DTT, protease …).
Series [2] addresses Japanese soil-borne wheat mosaic virus movement protein (MP^JSBWMV), as fusions MP^JSBWMV:RFP and MP^JSBWMV:GFP (Japanese soil-borne wheat mosaic virus). Nature of the series: FRET or BRET; FRET-FLIM (two-photon, time-correlated single-photon counting) in agro-inoculated N. benthamiana epidermal cells, at plasmodesmata; donor MP:GFP, acceptor RFP fusion; FRET efficiency above 5% considered as interaction. In general terms: BRET reads energy transfer from a luciferase to a nearby fluorophore.

Turning to “tRNA1JSBWMV (tRNA-like structure of RNA1)”, in series [1], the Kd (in general, the equilibrium constant for the complex coming apart) is 16.2 nM.
In the case of “Japanese soil-borne wheat mosaic virus movement protein (MP^JSBWMV), as fusions MP^JSBWMV:RFP and MP^JSBWMV:GFP (natural protein)”, in series [2], the % FRET was 19.1% and the fluorescence lifetime of the donor MP:GFP was 2 ns.
Regarding “tRNA2JSBWMV (tRNA-like structure of RNA2)”, the Kd in series [1] stood at 28.3 nM.
Regarding RNA1JSBWMV, the Kd in series [1] came to 15.4 nM.
Still for that read-out and setting: the figure for RNA2JSBWMV is 4.5 nM.

These data come from article PMC12060307.
